Laboratory results published in the supplement of paper PMC12636428.

System: Saccharomyces cerevisiae
Assay: transcriptional activation domain activity (GFP:mCherry ratio, weighted mean of sorted bins, harmonized to initial dataset scale) (arbitrary fluorescence ratio units); higher = stronger transcriptional activation
Settings: beta-estradiol 1 µM; induction time 4 h
Method in brief: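 Barcoded protein tiles fused to an estradiol-inducible synthetic transcription factor were integrated at the yeast URA3 locus, in diploids carrying a GFP reporter. Cultures were diluted 1:5 into SC with 1 uM beta-estradiol, held 4 hours at 30 °C, sorted into 8 bins by GFP:mCherry ratio, and barcodes sequenced. Tiles under 50 reads were discarded. Activation activity is the read-weighted mean of bin median fluorescence, averaged across barcodes, then linearly mapped onto the initial dataset scale.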

Sequence	transcriptional activation domain activity
AFGGGNTTGGGMFGNNTSKPAFGGTSNTGGALFGGGSNTNTGTAGFGTSFGGT	13900
RIAKRRRKDGEPMLYAPDELKEGRWAPKELIKTMARLRRSIQIVLCLSLLSGF	77000
SSPSSQTSSSTSVVLVFGLEEKRVKEAGEQLKSKLGVKGGGKGPRWSGKFVGV	51600
PSGGLFGNNNASTTTGGIGLFGNNNAAASTGGGLFGKPAASTTTATTGGLFGA	17400
LQQLLLRDYFKYFIKVFQDLSTYERKSYFVFRQMAYAIISIAQGRGCIEFQCH	43100
EDGEQKKQVLACSFCRERKIACGRPSAHSRDRTCNQCARRCMKCEHPTESRRG	13800
MLMFLRCGLGLRFGVLVCGCRSTFVCWSLQRAFANMLRARSLPWIFLAWVILL	76000
LGSIWKPLRNDLLFGTCFFLTRILYHNIMIFTFYYHLDFMFPVYTLLFILPLH	61100
SLPYFLYICDWYLCNSFLYLSSILSFHCVYLCCFASIITLWFPAFFLTVILSI	51500
HVNVPTQFLSMVCPMAESIVEMVNGRMNLVGTTNYWRMIILLRPYVFQCGAAI	44200
FAGLSYFVYDLHTMLSSIVIICVIVADFLYFGSILLPALWLECPYRVPLLFRP	71900
ANGDDSAAPKPEGQEDKPVESNGASASAAAPSEPQQQEGQPKAEPAEPAPATV	26400
FLSCMPFVFLTVVCSTLCMYFAKVFPTNNPVFLPLLLLHTFIHILSVVSFGLL	33300
MHSGPSFSCFFSVFPSFIFGLSTSSTLYIYFFFLLLDQLFVPSFFALLLLFLP	41400
KEKEDYALAIKLYADSIIITLRRLFKELDYIEIKSLIISSMFKVLLYNLLIYK	66200
HSILGFRFPRLRIMRCITCSSMRPDLRWLTFPIFENLEVFITSLYLTRKYWIQ	58300
VLGSEGSNLRCTRYLVVGGPPAMGREVQRFRECECTVMRMTVLIRGAVMWGCR	57500
GPLLFVEIRAGFFPLYYPFSFLCLSGFVFELGHYPSGSFVPGVLLSWSLNFII	53700
MDKFRVLRLVLFRWWLFALCLIRFEVMEALLIHSPRFFEKLILVRTNLYLLCI	50100
FFSSFLFFSFLFFSVVLSFLLFFSLLFSSPLFFPFLPFPSLSFPSLPSSPLLF	35200
ICLALCTVLTTLTLGVSLYFGVVLVRSDFLWQVSFRDLTWSYFVAFGAQVIVD	41100
VYLCNVNLSIFKSVLSWVGVCTALYGCITIMPIFRHDSPYHTPLSFLAWHIVI	63600
KGKGRREGGEGGEEREGNRERKRGRGREGKGGKERGNGRGKEGQRKEEREGKG	33500
AAAAAAAASNSYAIPENELLDEDTMNFISSLKNDLSNISNSLPFEYPHEIAEA	123000
MTVSWLRRLGTFLFEFFFFFSFFSFFFFLFSFFFFLFFLFSYFPFFSFFSFFS	21600

Sequence	transcriptional activation domain activity
NPPSWHHTLVFWGGKLFFCFYRIILPAYLIGWARTLLYLTLSDLVSSYWLALT	51300
MREAERAREEQEQERRRVEKVREREREREQERLERERLKAERERAAAAAVVAA	40100
GKKSSGKKSGSSKKTKKDKKAEKDKTAADEKEKEEVKEKETGAEGEKTPEHSE	37700
LWDANSFLTPMAQGLFKNLKSFEMLGMNCKVIRALILLIHRLWLLTNRLYRYN	34000
NGHGTHCSGTVAGKKYGVAKKANIKAVKVLRSNGSGTMSDVVKGVEFAAEQHS	15600
MWMSLLHFHTFTIFLTFFFFFFFFFCLPPFVSLLTLFLVEIFLSWREGFLPHP	39400
EAEEGGAGKRKAGSPEDTEQQQESSEKSTESNHKPATKRSTVSERPSKGKRRS	11500
KVKAEGEASDGGAPAPDAEGGAADDSAAGKKAARVRKPKAPRAPRPAGEDPVG	34200
MFIFFLILLFYYYFYSTILFITYTLFSITQLSIFTLIPFLYYIIHYVTLLICS	41100
MLGPFSVFLSVFPPFAAGFGTALFPFFFSCCLCFCCWCTSFALFAPLTALFAV	53300
MKRVLHVRNVARVNSGGKVRSVSALVVVGNGQGAAGYGEGRAVDAAAAVQKAT	54500
LNILILGSVLTDFDTLLRPETMQWNPPLGVWLIWWMQWQMFIPLLILQFLNLY	55400
LRWVRSNWRSNLTSLSELHMWWNYPWSLYAVFQTTITQWAFLLDCLLFACFYF	33700
RGATPGRKPAAGGPRESAARAARGRGKGGGTGGEGRGRGRARGRGRTRGKRRT	54900
TAANGKKSKGNKGGNAAGANANANAKANGNTKNGNGNSRNGNNKRMRALGSAM	25700
MDLYFMDLFIVILWCGFIVYLVYFLFFYYESGLVYLYIINSMGLCCESGVLFV	67500
KKKSKKRKEKKEKKRRSKSKKKGKKKRRSRSNSGSSSDSSSEDSSSSSSDSSD	50500
KDDRDDRDRRGGDDRREDREERRGGEDRGEDRGGEGRRDSRQEGGANREPSPS	23700
MFCLRSWLPLLFIPTNASPIFIFLFFICTYFLNRPCVYCSFLLLILFASSCHW	48400
FHIGIYARVLMCLLLDKKARPLPEDMKLWVDLLRWLKGGSPGGALSFFTYMEL	30900
CCIRNSLFQEDSKCIKQQPDLLSEQTAPFPILEDQCPALNLDRSNNDLLLQNN	35300
RCPAARLASSAPSAPPTPASASRTCPRPPRPSPRRTSSKSCSTRSSSASATPR	48000
MSDLETPKRRRPGVRPRASQACRACAAAKVRCDNLQSCHRCQNKRVACVRGSH	34100
TISRLVFAECFAESCVMFLLLMFQALDVLEPSSRLLNWRISLYILMSMILLFV	52800
MNCGIGFLNFHSQTSFKFLLFILFHFNFFAYLPLLTSCYSRLFSFSFSTIYFI	61200

Sequence	transcriptional activation domain activity
NNETETATKARRKKQAPKAAVEGSEDYESETATKAVAKKETKKKPIQKEVLVP	< 6570
ELLCIDRETGETRFVEPKVPDGISLRNFGIQVVSSCVLLLLVSLRPPHVLCAC	53600
ADDVGKWGAGLPGSAAVGGAGGGEEEEGKEKKAGGGMAARVLISEVSIKLLVP	33800
MASSTSPSPSTTSIKSEVAPGRTVACLRCRGRRQFCSKERPQCKKCRDARAEC	28800
FPFSLLVLLIFYVFSFVFVICYMGILGAQYVYFYFSYIFDCHPLPLLRRLSFF	36900
GKFLTVLLALSVMGSVAATSVAIFSFNNIRSNVYSFYSISLNMQILMPVLVYV	41200
GRGVKAGGGPRDREGGERGRERGEEGGEEGARRKEGDSRKEPAGGERREREEG	33400
QLRLFQFDRLVEELLPLVHTHFIRKGIKSSMFASQWFMTLFSYRFPLSLVYRV	66200
GAAASPPPNPDGGKPRKRKGPKEKGGEGNAAARRDAGAGAGAGAARSGSAAAA	27100
GGLWNLVMWHWMLSFLAGICCFFLQILTYIWLQESSVIRISTSCLAGFWILPL	91700
AEDKARKEAEDKAREEAEEKAREEQEEAARARADAEAKKAALEAKREAEAKAK	16300
SRLDAIEEEEEDLAAKNEGSTSNIEVDEIDIKSRDLKVGDIVKLGKNQRVPAD	39600
IRTLRRSAREVLTVYWVLHGILPFPSIHSLDPYILSRRWSLCLNCLFLYALYF	49700
RDDGRRRNEKPQRSKNKGTSSTGSDKKKTTEKKSSSSRKTSGSQVDKKLSSKK	37900
AAPVVAKKDDKKDKKKEEKKGEKEEKKPADEKKGGDKPKKEKKKAEKKPAAAP	22200
MDGEPANPAVSAPTTRRRRRRPALVCEQCRVRKIKCDRGSPCSKCARGRRSHL	42000
MYGHVWMGVLHCKLLLVGFLWVLFTLMPDMYIHGREGINSAYTIGHSFTIGFA	47400
LLHAAGVHYGYGLLLLKCDILLRLLMFISFLLSSQFLLSVISPLLFFPSFVLM	54700
SIAISPESAVANLGTDTGLPSDVLDTVSKIGNSPNVFDDDLFSNLLWFDQNFA	142000
MARQLYSPFFIFLYLPSCIYKNILFSSFLFFLTSLIGIFLHPFFNIVCFICQM	58500
ITHCPSTRVAYTYIVGLSTNAVMIGFVLCPHCFLAFQNPSQTLWFLSLFLLCL	47700
DGWGDGGLRAGALEEVQRRAEEMRGRLRLDEEARLYFSRSGNRLVRVVIILVG	7180
YEIKRRLQVCRAVLDEHINPYEFKHHTVYREALLKLMYFHCVISLRLVLSWTD	65300
LLRLLQCVFVAALLLVSKLCTFTEMMPDVVLRQFLVVAIDILFYGKLTIVPWN	54600
